Target: Flag-tagged full length Ack1 (human) (UniProt Q07912)
Assay: co-IP; Cos7 cells transfected with FLAG-Ack1 alone or with HA-NKD or HA-KD; RIPA lysates (450-750 ug) incubated overnight at 4°C with FLAG M2 affinity gel, washed 5 times with RIPA buffer; blots with anti-HA and anti-FLAG; densitometry ratio HA-Ack1/Flag-Ack1

- fold co-immunoprecipitation against HA-KD: 3 fold
Substance: HA-tagged Ack1 NKD (amino terminus plus kinase domain) (from UniProt Q07912 1-385) (domain or fragment)

From PMC2987765
